# Assay results from the DeepSol protein solubility set.
# Test: soluble on expression in E. coli; label from the status in PepcDB or PDB records
row,Sequence,soluble on expression in E. coli
1,MTDNPAVDKRDQILAAAEQLIAESGFQGLSMQKLANEAGVAAGTIYRYFSDKEHLLEEVRLNVAKRIASAVQAGVNDDMPLKECYRTMWLNIWNLAGSNLNAISNRVQYDSLPCTTRNKTWELERKMFAQVDRLFNQGKEEGVFKPLDNEVLSGLSFEASVALARKHALGFYQLDDDALEAAIEASWDAIIKH,soluble
2,MTDSDGKIVWETGYQVWGNTIQEKDHGGVEQNLRYQGQYLDRETGLHYNLHRYYDPDVGRFMVTDPIGLRGGLNLYSYAPNPLKYADPLGLTPCAVSNQKANRLLDSSETKVTVRSRSDAEQLFMDRYLGHNYKNMTGESGPSTKNLMEYLTENKTKAGSYHWDDIKDPSVTKPSYRVSGHGPGNPDGDLPHLQVHQHGGSVRHIFFPWETLEHHHHHH,not soluble
3,MTDYPSIFEPLTVKRMTIKNRVIMPPMGTNLAGLNGEFLEEHMNYYEQRAKGGTGLITIENACVDFPYGTNGTTQLRIDNDQYIPGFYKLTERLHKHGTCVSIQINHAGASAYPARLNGLQPVSASDIPSKKGGTVPRPLTVEEIYEIVNKYGDAARRAQQAGFDAVEIHGGHSYLLCQFLSPLYNKRTDEFGGTPENRARIVKLILEKVRAEVGPFFPIVLRFSADEFTEGGNHLEDILELLDYCQEEADILNVSAAINDNLYLQIDQMNLEDGWRSYLAKAVKDKFNKPTITSGNIRSPKAAEKILSEGYADLLAMGRGLIAEPNWVNKVATGQEDMLRKCISCNIGCADHRISKSKPIRCTVNPDIIHEDKYKETKVTRPTNVVVIGGGTAGLEAACTAAEVGCNTTLIEANEQTGGLARAIANLPDKSRIADFPNYLANRAEKLTNLKVITGTKADTALIDTFNPDVVVNATGSKPLLPPIKGLLDVIDKEGSKVHSIFGLISNIDDFTEFSNKKVAVIGGGAVGLDVVEYFSERGSDVTIVEMMPLLGKDLDMITRLSMMDIIEKNHVDVQTETALTEVAADHFKVKHDGVDAEIPFDYGFVCLGMRPERPLMEELAAYGKEKQIEIVNIGDSAATRKILEGVREGRNILTTLEKIGSL,not soluble
4,MTEAAKKSTKKPVDDGNFDKEIISRWPDLELSQTRFMLNHPEVDSSVKEAKLEKLQETIKEFDMAPFYELVCADFKIVVDATQLAAMKAANQKKIDEITAEVEDAEKNLGESEVRQGLLRKFEYYCQIGDKDNALKAYTATYEKTVGMGYRIDVVFAMIRVGLFFLDHHLINKFITKAKELMEQGGDWERKNRLRSYEALYRMSVRDFAGAADLFLEAVPTFGSYELMTYENLILYTVITTTFALDRPDLRTKVIRCNEVQEQLTGGGLNGTLIPVREYLESYYDCHYDRFFIQLAALESERFKFDRYLSPHFNYYSRGMRHRAYEQFLTPYKTVRIDMMAKDFGVSRAFIDRELHRLIATGQLQCRIDAVNGVIEVNHRDSKNHLYKAVIKDGDILLNRIQKLARVINA,not soluble
5,MTEDLFGDLQDDTILAHLDNPAEDTSRFPALLAELNDLLRGELSRLGVDPAHSLEIVVAICKHLGGGQVYIPRGQALDSLIRDLRIWNDFNGRNVSELTTRYGVTFNTVYKAIRRMRRLKYRQYQPSLL,soluble
6,MTEDRNFDDIAHKFAKNIYGSDKGEIRQVIVWEDLEQLLSQLDTQKVPLHVLDAGGGLAQVSQKIARLGHRVTLCDLSSEMLQLAEQDIANNGLLEQYRFVHSPVQTIQAHLDAPVDLVLFHAVMEWLAEPKPALQNLLAQVRPGGMVSVMFYNYHGLVYKNAVCGNIPHVLEDMPHRKRFKLQPQKGLLPEEVYQWIEESSFEICGKSGIRCFSDYIGNMKNMGEYQYEDLVALERKFCRQEPYLSLGRYIHVWAKKKQ,not soluble
7,MTEEMNQIDVQVPEVGDVVKGIVTKVEDKHVDVEIINVKQSGIIPISELSSLHVEKASDVVKVDDELDLKVTKVEDDALILSKRAVDADRAWEDLEKKFETKEVFEAEVKDVVKGGLVVDIGVRGFIPASLVEAHFVEDFTDYKGKTLSLLVVELDRDKNRVILSHRAVVESEQANKKQELLQSLEVGSVLDGKVQRLTDFGAFVDIGGIDGLVHISQLSHSHVEKPSDVVEEGQEVKVKVLSVDRDNERISLSIKDTLPGPWNQIGEKVKPGDVLEGTVQRLVSFGAFVEILPGVEGLVHISQISNKHIGTPHEVLEEGQTVKVKVLDVNENEERISLSMRELEETPKADQEDYRQYQAKEETSTGFQLGDLIGDKLNKLKLEHHHHHH,soluble
8,MTEKKIDFKKEEKKFYAPKRKPERIFVPEMNFLMVDGKGDPDGEEYQKAVQSLYAIAYTIKMSKMGETRLDGYSDFVVPPLEGFWWSEGKFDLKDRDAWLWTSILRQPDFVTEEVLEWAKEVARKKKPDVDTSRVKLVRFEEGECVQMMHVGPFSEEVHTVAEMHQFMETEGLRNDTGAIRKHHEIYLSDPRKANPEKMKTILRLPVS,soluble
